Assay [1] has as its target T1, peptide CDTTATTEPAVHD (entire-length peptide of 13 amino acids used as an immunogen).
T1 construct: Synthetic peptide with an added N-terminal cysteine; It was KLH-coupled only for immunization
T1 peptide: CDTTATTEPAVHD
The assay can be described thus: ELISA on coated peptide, HRP-labeled antibody. The procedure:
(§1) The anti-CADM1 v9 antibodies F1222 and F1315 were previously HRP-labeled using Peroxidase Labeling Kit-NH₂ (DOJINDO LABORATORIES), and epitopes were narrowed down according to an ELISA method. Peptide synthesis was outsourced to Toray Research Center, Inc. The peptide was dissolved in 10% DMSO/PBS to prepare a peptide solution having a concentration of 1 mg/mL. […] of the peptide diluted in a carbonate buffer to a concentration of […] was added to Nunc MaxiSorp 96-well plate (Thermo Fisher Scientific) and was left at rest at 4° C. overnight for immobilization. The plate was washed with PBS-T twice, and […] of 1%/BSA/PBS-T was added. The plate was left at rest at room temperature for 1 hour for blocking. The plate was washed with PBS-T twice, and […] of the HRP-labeled antibody diluted in 1% BSA/PBS-T to a concentration of 100 ng/mL was added, followed by incubation at room temperature for 1 hour. The plate was washed with PBS-T four times, and […] of TMB Soluble Reagent (ScyTek Laboratories) was then added for color development. […] of TMB Stop Buffer (ScyTek Laboratories) was further added to terminate the reaction. Finally, using the Ensight plate reader (PerkinElmer), the wavelength at 450 nm was measured.
(§2) In order to narrow down the epitope of the anti-CADM1 v9 antibody, a peptide consisting of 13 amino acids in entire length (SEQ ID NO: 2) used as an immunogen, and peptides obtained by dividing the aforementioned peptide into short fragments (SEQ ID NOS: 28 to 30) were synthesized, and the reactivity of these peptides to the anti-CADM1 v9 antibody was studied using an ELISA method.
(ELISA stands for enzyme-linked immunosorbent assay.)

In the next assay the target is T2, SEQ ID NO 28.
T2 construct: Short fragment obtained by dividing the 13-aa immunogen peptide; also called divided peptide consisting of 7 amino acids
T2 peptide: CDTTATT
The assay can be described thus: ELISA on coated peptide, HRP-labeled antibody. The procedure:
as §1, §2

The next assay addresses T3, SEQ ID NO 29.
T3 construct: Short fragment obtained by dividing the 13-aa immunogen peptide; also called divided peptide consisting of 7 amino acids
T3 peptide: TATTEPA
Briefly: ELISA on coated peptide, HRP-labeled antibody. The procedure: as §1, §2

Another assay has as its target T4, SEQ ID NO 30.
T4 construct: Short fragment obtained by dividing the 13-aa immunogen peptide; also called divided peptide consisting of 7 amino acids
T4 peptide: TEPAVHD
Briefly: ELISA on coated peptide, HRP-labeled antibody. The procedure:
as §1, §2

Assay [2] has as its target T5, human CADM1 v9 fragment (human, UniProt Q9BY67-4 45-371).
T5 construct: Extracellular region of CADM1 v8/9 released from cells by protease cleavage; It was tested in, or purified from, the culture supernatant of SBC5 cells stably expressing CADM1 v8/9 (approximately 80 kDa, O-glycosylated region); also called v9 fragment of CADM1; CADM1 v8/9 fragment
T5 sequence: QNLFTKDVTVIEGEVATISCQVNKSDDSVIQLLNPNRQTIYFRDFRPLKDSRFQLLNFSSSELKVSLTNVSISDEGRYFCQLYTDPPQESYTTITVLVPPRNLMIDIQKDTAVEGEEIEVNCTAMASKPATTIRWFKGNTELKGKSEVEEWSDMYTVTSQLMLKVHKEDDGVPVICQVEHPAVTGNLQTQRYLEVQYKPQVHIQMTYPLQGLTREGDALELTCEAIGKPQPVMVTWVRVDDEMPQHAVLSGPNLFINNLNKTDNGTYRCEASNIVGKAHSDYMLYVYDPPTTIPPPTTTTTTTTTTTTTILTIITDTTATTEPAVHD
Briefly: sandwich ELISA on culture supernatant, capture E9935, detection HRP-labeled F1222. The procedure:
(§3) PBS-T (137 mM NaCl, 8.1 mM […], 2.68 mM KCl, 1.47 mM KH₂PO₄, and 0.05% Tween 20) was used for washing twice, and […] of 1%/BSA (Wako Pure Chemical Industries, Ltd.)/PBS-T was added. The plate was left at rest at room temperature for 1 hour for blocking. The plate was washed with PBS-T twice, and thereafter, a standard for a calibration curve, a culture supernatant, and serum or pleural effusion were added, followed by incubation at room temperature for 1 hour. The plate was washed with PBS-T four times, and […] of the detection antibody diluted in 1% BSA/PBS-T to a concentration of 100 ng/mL was added, followed by incubation at room temperature for 1 hour. The plate was washed with PBS-T six times, and […] of TMB Soluble Reagent (ScyTek Laboratories) was then added for color development. […] of TMB Stop Buffer (ScyTek Laboratories) was further added to terminate the reaction. Finally, using an Ensight plate reader (PerkinElmer), the wavelength at 450 nm was measured.
(§4) (A) The total amount of CADM1 fragment or other cells and (B) the amount of the CADM1 v9 fragment, secreted in the culture supernatant of SCLC were measured according to a sandwich ELISA method. As a capture antibody, the anti-CADM1 mouse monoclonal antibody E9935 was used. As detection antibodies, the anti-CADM1 antibody E9919 and the anti-CADM1 v8/9 antibody F1222, which were HRP-labeled, were used. […]

Assay [3] deals with T5, human CADM1 v9 fragment. The assay can be described thus: sandwich ELISA on culture supernatant, E9935 as capture antibody, detection HRP-labeled F1222. The procedure:
as §3, §4

B1: anti-CADM1 v9 antibody F1222 (antibody, V domains shown)
VH: EVQLVESGGGLVQPKGSLKLSCAASGFTFNTYAMNWVRQAPGKGLEWVARIRSKSNYYTTYYADSVKDRFTISRDDSQSMLYLQMNNLKTEDTAMYYCIRQRHGNFYWGQGTLVTVSA
VL: DIVLTQSPASLAVSLGQRATISCKASQSVDYDGYSYMNWYQQKPGQPPKLLIYAASNLESGIPARFSGSGSGTDFTLNIHPVEEEDAATYYCQQSNEDPPTFGAGTKLELK
notes: Mouse monoclonal antibody from a hybridoma (Cadm1-/- Balb/c mice); It was HRP-labeled (Peroxidase Labeling Kit-NH2) in the sandwich and peptide ELISAs; also called anti-CADM1 v8/9 antibody F1222
Regarding B1, the binding result is reported as “binds” in assay [1]; “no binding (tested: 100 ng/mL antibody)” with SEQ ID NO 28; “no binding (tested: 100 ng/mL antibody)” in the assay with SEQ ID NO 29; “no binding (tested: 100 ng/mL antibody)” with SEQ ID NO 30; “binds” with human CADM1 v9 fragment [2].

B2: anti-CADM1 mouse monoclonal antibody E9935 (antibody, V domains shown)
VH: QVQLQQSGTELAKPGASVKMSCKASGYTFTHYWMHWVKQRPGQGLEWIGFINPGTGYTEYNQKFKDKATLTADKSSSTAYIQLSSLTSEDSAVYYCSRASYYSGSSHAWFGFWGQGTLVTVSA
VL: DIVLTQSPASLAVSLGQRATISCKASQSVNYDGDNYMNWYQQKPGQPPKLLIYAASNLESGIPARFSGSGSGTDFTLNIHPVEEEDAATYYCQQSYEDPWTFGGGTKLEIK
notes: Mouse monoclonal antibody from a hybridoma; It served as the capture antibody in the sandwich ELISA and, crosslinked to Protein A Sepharose, for purification; also called anti-CADM1 antibody E9935
Consider B2, for which, in the assay with human CADM1 v9 fragment [3], the binding result is given as “binds”.

The values are drawn from US20210079092A1 (UNIVERSITY OF TOKYO, published 2021).
